Data reported in US20150017162A1 (OMEROS, published 2015).

B1: scFv clone 17D20 (scFv)
scFv: QVTLKESGPVLVKPTETLTLTCTVSGFSLSRGKMGVSWIRQPPGKALEWLAHIFSSDEKSYRTSLKSRLTISKDTSKNQVVLTMTNMDPVDTATYYCARIRAGGIDYWGQGTLVTVSSKLSGSASAPKLEEGEFSEARVQPVLTQPPSVSVSPGQTASITCSGDKLGDKFAYWYQQKPGHSPVLVIYQDNKRPSGIPGRFSGSNSGNTATLTISGTQAMDEADYYCQAWDSSTAVFGTGTKVTVLAAAGSEQKLISEEDLNSHHHHHH
B2: scFv clone 17N16 (scFv)
scFv: QVQLQQSGPGLVKPSQTLSLTCAISGDSVSSTSAAWNWIRQSPSRGLEWLGRTYYRSKWYNDYAVSVKSRITINPDTSKNQFSLQLNSVTPEDTAVYYCARDPFGVPFDIWGQGTMVTVSSKLSGSASAPKLEEGEFSEARVSYVLTQPPSVSVAPGQTARITCGGNNIGSKNVHWYQQKPGQAPVLVVYDDSDRPSGIPERFSGSNSGNTATLTVSRVEAGDEADYYCQVWDTTTDHVVFGGGTKLTVLAAAGSEQKLISEEDLNSHHHHHH
B3: NimoAb101 (antibody, V domains shown)
VH: EVQLVESGGGLVQPGRSLKLSCLVSGFTFSNFGMNWIRQAPGKGLEWVASISSGGTYIYHADTLKGRFTISRENAKNTLYLQMTSLRSEDTALYYCARGPYHSRYIPYLMDAWGQGASVTVSS
VL: DIQMTQSPGSLCASLGETVTIECRASDDIYSNLAWYQQKPGNSPQLLIFDGNRLADGVPSRFSGSGSGTQYSLKMKSLQFEDVASYFCQQYNNYPLTFGSGTKLEIKR
B4: scFv daughter clone 17N16m_d17N9 (scFv)
chain: QVQLQQSGPGLVKPSQTLSLTCAISGDSVSSTSAAWNWIRQSPSRGLEWLGRTYYRSKWYNDYAVSVKSRITINPDTSKNQFSLQLNSVTPEDTAVYYCARDPFGVPFDIWGQGTMVTVSSSYELIQPPSVSVAPGQTATITCAGDNLGKKRVHWYQQRPGQAPVLVIYDDSDRPSGIPDRFSASNSGNTATLTITRGEAGDEADYYCQVWDIATDHVVFGGGTKLTVLAAAGSEQKLISE

Tests used:
human MASP-2 [1] = biological target: T1, human MASP-2 (human, UniProt O00187 16-686); experiment: cell-based or functional assay
human MASP-2 [2] = biological target: T1, human MASP-2; experiment: cell-based or functional assay; remark: listed apart in the source

T1 sequence (O00187 16-686): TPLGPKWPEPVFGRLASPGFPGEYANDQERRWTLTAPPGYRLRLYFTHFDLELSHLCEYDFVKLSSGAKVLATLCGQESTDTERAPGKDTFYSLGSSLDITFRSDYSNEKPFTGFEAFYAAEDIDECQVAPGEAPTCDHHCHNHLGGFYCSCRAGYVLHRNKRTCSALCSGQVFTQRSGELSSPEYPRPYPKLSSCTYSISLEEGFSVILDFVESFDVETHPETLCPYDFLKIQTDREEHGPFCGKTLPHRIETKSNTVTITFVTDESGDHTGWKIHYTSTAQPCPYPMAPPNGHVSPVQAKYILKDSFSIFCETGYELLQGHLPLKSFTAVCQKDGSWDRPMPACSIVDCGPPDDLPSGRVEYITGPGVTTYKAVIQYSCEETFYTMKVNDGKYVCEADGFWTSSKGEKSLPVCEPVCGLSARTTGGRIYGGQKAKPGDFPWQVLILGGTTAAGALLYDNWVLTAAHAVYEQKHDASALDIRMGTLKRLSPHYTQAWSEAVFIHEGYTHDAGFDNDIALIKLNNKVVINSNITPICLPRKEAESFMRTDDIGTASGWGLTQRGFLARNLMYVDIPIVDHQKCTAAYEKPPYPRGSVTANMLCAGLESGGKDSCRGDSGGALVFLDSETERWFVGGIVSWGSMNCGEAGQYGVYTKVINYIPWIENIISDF

Row | Binder | IC50, C3 assay, 1% human serum (average value) (human MASP-2 [1]) | IC50, C4 deposition in full human serum (human MASP-2 [2])
1 | B1 | 0.038 µM | –
2 | B2 | 0.068 µM | –
3 | B3 | – | 0.0318 mg/L
4 | B4 | 0.048 µM | –
